How the values were obtained:
[1] = target: kap3_human PRKAR2B (UniProt P31323)
[2] = target: kap3_human PRKAR2B (UniProt P31323); remark: listed apart in the source

- effect of a mutation on the interaction [1]: disrupting interaction strength
- effect of a mutation on the interaction [2]: decreasing interaction strength
Substance: cAMP-dependent protein kinase catalytic subunit alpha (Homo sapiens) (from UniProt P17612) L206R

From IntAct's records for PubMed 25477193
